Measured values reported in the nanobody polyreactivity screen of Harvey et al. (2022).

Experiment: yeast display, Sf9 membrane polyspecificity reagent, FACS + sequencing; frameworks hold sequencing errors
Method in brief: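 Nanobodies from a synthetic yeast display library (Saccharomyces cerevisiae BJ5465), induced 36–48 hours with galactose, were stained 1 hour at 4 °C with 10% biotinylated, detergent-solubilized Sf9 membrane reagent, enriched on streptavidin microbeads, then FACS-sorted. Anti-HA (expression) and streptavidin (reagent binding) fluorescence set low and high (top ~1%) gates. Polyreactivity labels come from the gate of origin. Genes were colony-PCR amplified, MiSeq 2 × 250 sequenced and filtered by CDR length.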

Row | Sequence | polyreactivity (PSR sort gate)
1 | QVQLGESGGGLVQAGGSLRLSCAASGSTFVWYAMGWYRQAPGKERELVANISGSGGSTYYADSVKGRFTISRDNAKNTVYLQMNSLKPEDNAVYYCAAQRQWRTQYDDDYWGQGTQVTVSS | low polyreactivity
2 | QVQLGESGGGLVQAGGSLRLSCAASGTIYGYVMGWYRQAPGKERVLVAAISSSGGSTYYADSVKGRFTISRDNAKNTVYLQMNSLKPEDTAVYYCAKGLTYARRYGYWGQRTQVTVSS | high polyreactivity
3 | QVQLGESGGGLVQAGGSLRLSCAASGYIFAYYAMGWSRQAPGKERELVAAISRSGGSTYYADSVKGRFTISRDNAKNTVYLEMISLKPEDTAVSYCAARSTGNYEREYNYWGQGTQVTVSS | high polyreactivity
4 | QVQLGESGGGLVQAGGSLRLTCAASGIIFPYYAMGWYRQATGKERELVAGISSSGGITYADSVKGRFTISRDNGKNTVYLQMNSLKPEDTAVYYCNAEYQWLEYDYCGQGTQVTVSS | low polyreactivity
5 | QVQLGESGGGLVQAGGSLRLTCAASGITFAYYVMGWYRKAPGKERELVAASTRSGDFTSYADSVKGRFTISRDNAKNTVYFQMNSLKPEDTAVYYCNARRGYQSRRYNYWGQGTQVTVSS | high polyreactivity
6 | QVQLGESGGGLVQAGGSLRLTCAASGITFGPYAMGWSRQAPGKERELVAAITWRGGSTYYADSVKGRFTISRDNAKNTVYLQMNSLKPEDTAVYYCNAKTEYGSPRGYGSWGQGTQVTVSS | low polyreactivity
7 | QVQLGESGGGLVQAGGSLRVICAASGFIFRDYAMGWYIQAPGKERELFAAIRSTTGSTYYADSVKGRFTISRDNSKNTVYLQMNSLKPEDTAVYYCAAAYPFYADMDYSGQGTQVTVSS | low polyreactivity
8 | QVQLGESGGGLVQAGGSRRFSSAASGSIVKAYAMGWYRPAPGKDRELVAAISTSDGSTYYADSVKGRFTISRDNAKNTVYLQMNSLKPEDTAVYYCATEYDYWDDSYDSWGQGTQVTVSS | low polyreactivity
9 | QVQLGESGGGLVQAGRSLRLSCAASGSTIGPDAMGWYRQAPGTERELVAAIRYSSVRTYYADSVKGRFTISRDNAKNSVYVQMNSLKPEDTAVYYCNAVFWSYTVWGRSDYWGQGTQVTVSS | low polyreactivity
10 | QVQLGESGGGLVQAGVSLRLSCAASGSLFYHNAMGWYRHAPGKERELVAAISGRGGSTYYADSVKGRFTISRDNAKNTVYLQMNSLKPEDTAVYYCAADARYQNGGLYYWGQGTQVTVSS | high polyreactivity
11 | QVQLGESGGGLVQSGGSLRLSCAASGRIFDLNAMGWYRPAPGKERELVAAISYSDGSTYYADSVKGRFTISRDNEKNTVYLQMNSLKTEDTAVYYCAADFFDRTYITWYEYWGQGTQVTVSS | high polyreactivity
12 | QVQLGESGGVLVQAGGSLRLSCAASGRIFSENAMGWYRQATGKEWELVAAITGNGGDTYYADSVKGRFTISRDTAKNTVYLQMNSLKPEDTAVYYCAAETGGLGGDYWGQGTQVTVSS | low polyreactivity
13 | QVQLGESRGGIVQAGGSLRLSCAASGSTFSYYAMGWYRQAPGKARELVAAISNRGGSTYYADSVKGRFTISRDNAKNTVYLQMNSLKPEDTAVYYCAAYYVFGYSTSGDYWGQGTQVTVSS | high polyreactivity
14 | QVQLGESRGGLVQAGGSLRLSCAASGRTFTGYAMGWYRQAPGKERELVAAITVSSGRTYYADSVKGRFTISRDNAKNTVYLQMNSLKPEDTAVYYCAKRFRSTHLWKFGGYDYWGQGTQVTVSS | high polyreactivity
15 | QVQLGESVGGLVQAGGSLRLSCAASGRIFEPYAMGWYRQAPGKESELVAAINSGGSTNYADSVKGRFTISRDNAKNTVYLQMNSLKPEDTAVYYCNKGQNIRQSPGDYWGLGTQVTVSS | low polyreactivity
16 | QVQLHESAGGLEQAGGCLSCTASGTIFGQGDMCWYLQAPGKEPELVGTINDGASTYYADSVKGRFTISRDKAKNTVYLQKNSLKPADTAVYYCSVFTDITTYFGYWGQGTQVTVSS | low polyreactivity
17 | QVQLHESGGGLVQAGGGLRLSCAASGSISSTGFMGWYRQAPGKEREPVAAIAPGTTTYYADSVKGRFTISRDNAINTVYLQMNSLRPEDTAVYYCAVFTDNRVAFLYWGQGTQVTVSS | low polyreactivity
18 | QVQLHESGGGLVQAGGGLRLSSAASGSISSTGFMGWYRQAPGKEREPVAAIAPGTTTYYADSVKGRFTISRDNAKNTVYLQMNSLRPEDTAVYYCAVFTDNRVAFLYWGQGTQVTVSS | low polyreactivity
19 | QVQLHESGGGLVQAGGSLRLSCAASGTISYAGPMGWYRQAPGKEREFVAGIGVGSNTNYADSVKGRYTIIRDNAKNTVYLQMNSLNPEDTAVYYCAVGGYDPLGRPYWGQGTQVTVSS | low polyreactivity
20 | QVQLIESGGGLVQAGGSLRLSCAASGSSLYYYALGWYRQAPGKEREWVAAISSSDGRTYYADSVKGRFTISRDNAKNTVYVQMNSLKPEDTAVYYCNAAVYAHRYIYGFDYWGQGTQVTVSS | high polyreactivity
21 | QVQLKESVGGLVQAGGILRLSCAASGNIFPTDRMAWYRQAPGTELEFVATISHGGSTNYADSVKGRFTISRDNSKNTLYLQMNSLKPEDTAVYYWWGWSLGRWRHYYWGQGTQVTVSS | low polyreactivity

Row | Sequence | polyreactivity (PSR sort gate)
22 | QVQLLESGDGLVQAVGSLRLSCAASGYISGYYYMGWYRQAPGKERELVAGIDAFGSSTNYADCVKGRFTISRDNAINSVYLQMNSLKPEDTAVYYCAARPDGDRLFSYWGQGTQVTVSS | low polyreactivity
23 | QVQLLESGGALVQAAGSLRLSCAASGYTIGRYAIGWYRHAPGKDRELVAAITWSGGSTYYADSVKGRFTISRDNAKNTVYLQMNSLKPEDTAVYYCAKRYRYYSYGPYGMYYWGQGTQVSVSS | high polyreactivity
24 | QVQLLESGGGIVQAGGSLRLSCAASGRINAMGWYRQAPGKERELVAVITLRGGSTYYADSVKGRFTISRDNAKNTVYLQMNSLKPEYTAVYYCAAVYRWPDAKYDYWGQGTQVSVSS | low polyreactivity
25 | QVQLLESGGGIVQAGGSLRLSCGASGSTFTLNAMGWYRQAPGTEREFVADISWSSGRTYYADSVKGRFTISRDNAKNTVYVQMNSLKQEDTAVYYCATDDFWNVKFYAYYPEFDYWGQGTQVNVSS | low polyreactivity
26 | QVQLLESGGGLDKAGVRIRLSCASSGIIFAWYAMVWYRQAHRKEMELVAAISWSCGSTYYAYSVKLRFTISRDNAKNTVDLQMNSLTPEDTAVYYCATYPRRQGKYAYWGQGTQVTVSS | high polyreactivity
27 | QVQLLESGGGLFQAGGSLRLSCAASGRIFDPYAMGWYRKAPWKETELVAAISWRGGSTNYADSVKGRFTISRDNAKNTVYLQMNSLKPEDTAVYYCAAVPVRYRYSYGYYYWGQGTQVTVSS | high polyreactivity
28 | QVQLLESGGGLFQPGGSLRLSCAASGRTFDGNVMGWYRQAPGKETELVAAITASGGRTYYADSVKGRFTISSDNAKNTVYLQMNSLKAEDTAVYYCNAGIRRSRGTMDYWGQGTQVTVSS | high polyreactivity
29 | QVQLLESGGGLLQAGGSLRLSCAASGLTFGKYAMGWYRQAPGKERELVAAINSSGGSTYYADSVKGRFTISRDNAKNTVYLQMNSLKPEDSAVYYRAVAVYRLIYFVYNYWGQGTQVTVSS | low polyreactivity
30 | QVQLLESGGGLVHSGGSLRLSCASSGRIFPSNTMGSYRPAPGKERELVADISFGGGSTSYADSVKGRFTISRDNAKNTVYLQMNRLKPEDTAVYYCNADRDDDYDYWGQGTQVTLSS | low polyreactivity
31 | QVQLLESGGGLVQAGASLRLSCAASGSIFLPNAMGWSRQAPGKERELVAAISWSGGSTYADSVKGRITISRDNAKNTVYLQMNILKPEDTAFYFCAADDGFTPRDLYVCYDYWGQGTQVTVSS | low polyreactivity
32 | QVQLLESGGGLVQAGCSLRLSCAASGFTFKSNAMGWYRQAPGKESELVARINRSGGSTYYADSVKGRFTISRYNAKNTVYLQMNSLKPEDTAVYYCARGRYTLYESKYDYWGQGTQVTVSS | high polyreactivity
33 | QVQLLESGGGLVQAGGCLRLSCAASGFTFYGYARGWYRQAPGIERELVAGIAKCGTRTYYADSLKGRFTISRDNAENTVFFQMNSLKPEDTAVYYCAARLRRGLTATWYYYWGQGSQVTVSS | high polyreactivity
34 | QVQLLESGGGLVQAGGSLGCAASGNISTRSEMGWYRQAPGKEREFVATINSGGITNYADSVKGRFTISRDNENNTVYLGMNSLKPEDTAVYYRAVYVYFSDPYDYWGQGTQVTVSS | low polyreactivity
35 | QVQLLESGGGLVQAGGSLRLSCAASGFIICYNGMGWYRQAPGKERELVAGITYSDGSTYYADSVKGRFTISRDNAKITVYLQMNSLKPEDTAVYYCAVDVFYYWAEDYDYWGQGTQVTVSS | low polyreactivity
36 | QVQLLESGGGLVQAGGSLRLSCAASGFNFGVYAMGWYRQAPGKERELVAAITRSGGSTYYADSVKGRYTISRDNAKNSVYLQMNSLNPEDTAVYYCAARARDHYGYWGQGTQVSVSS | high polyreactivity
37 | QVQLLESGGGLVQAGGSLRLSCAASGFTFNPYAMGWYRQAPGKERELVARISRGTSTNYADSVKGRFTISRDNAKNTVYLQMNSLKPEDTAVYYCAASYGSFHTYLDYNYWGQGTQVTVSS | low polyreactivity
38 | QVQLLESGGGLVQAGGSLRLSCAASGFTFYRYAMGWYRQAPGKERELVAVISGSGTSTYYADSVKGRFTISRDIAKNTVYLQMNSLKQEDTAVYYCAASQSIFSGHVRYRVDYDSWGQGTQVSVSS | high polyreactivity
39 | QVQLLESGGGLVQAGGSLRLSCAASGFTLAFNAMGWYRQAPGKERELVASITSSSGSTYYADSVKGRFTISRDNAKNTVYLQLNSLKPEDTAVYYCARDLAIPQVLSQPIFGYWGQGTQVTVSS | low polyreactivity
40 | QVQLLESGGGLVQAGGSLRLSCAASGGIFPAYAMGWYRQAPGKERELFADITNGGSTYYADSVKGRFTISRDNAKNTVYLQMNSLKPEDTAVYYCNAREFWRTRFGCGYPYRRNMDYWGQGTQVTVSS | low polyreactivity
41 | QVQLLESGGGLVQAGGSLRLSCAASGIIFSSNAMGWYRKAPGKERELVAAITRRGGSTRYADSVKGRFTISRDNAKNTVYLQMNSLKPEDTAVYYCNALSGYPYRWGISYPMDYWGQGTQVTVSS | high polyreactivity
